The values that follow come from patent US20130078247A1 (Boehringer Ingelheim, published 2013).

As usually defined, the % inhibition is the percentage by which the read-out fell short of the control. A word on the EC50 (read off the curve): it is the concentration that produces a half-maximal response. Broadly, the koff is the rate constant with which the complex falls apart.

The target of assay [1] is T1, human DLL4, full length, overexpressed on CHO or HEK293 cells (human, UniProt Q9NR61 27-685). Briefly: cell-based or functional assay.
Assay [2] has as its target T2, mouse DLL4, full length, overexpressed on CHO or HEK293 cells (mouse, UniProt Q9JI71 27-686).
T2 construct: whole, on cells; also called CHO-mDLL4; CHO-mDII4
Nature of the assay: periplasmic extract; FMAT, Notch1/Fc on CHO-mDLL4. The text has this:
(§1) All calculations are based on the FL1_total signal which comprises the average of the fluorescence per well times the number of counts per well.

For assay [3], the target named is T3, recombinant human DLL4 extracellular domain, C-terminally His-tagged (R&D Systems) (human, UniProt Q9NR61 25-522, biotinylated in the competition assays (sites not given)). Briefly: cell-based or functional assay.
The target in assay [4] is T1, human DLL4, full length, overexpressed …. Nature of the assay: periplasmic extract; FMAT, Notch1/Fc on CHO-hDLL4.
From the text: as §1

The target of assay [5] is T4, recombinant human Jagged-1 (Alexis) (human, UniProt P78504 34-1067, limits assumed).
T4 construct: also called hJagged-1; hJAG1
Briefly: rhDLL1/rhJAG1 binding ELISA. A general note: An ELISA detects its analyte on a solid surface through an enzyme-linked reagent.

Assay [6] addresses T5, recombinant human DLL1 (Alexis) (human, UniProt O00548 18-545, limits assumed).
T5 construct: also called hDLL1; rhDLL1
T5 sequence (looked up): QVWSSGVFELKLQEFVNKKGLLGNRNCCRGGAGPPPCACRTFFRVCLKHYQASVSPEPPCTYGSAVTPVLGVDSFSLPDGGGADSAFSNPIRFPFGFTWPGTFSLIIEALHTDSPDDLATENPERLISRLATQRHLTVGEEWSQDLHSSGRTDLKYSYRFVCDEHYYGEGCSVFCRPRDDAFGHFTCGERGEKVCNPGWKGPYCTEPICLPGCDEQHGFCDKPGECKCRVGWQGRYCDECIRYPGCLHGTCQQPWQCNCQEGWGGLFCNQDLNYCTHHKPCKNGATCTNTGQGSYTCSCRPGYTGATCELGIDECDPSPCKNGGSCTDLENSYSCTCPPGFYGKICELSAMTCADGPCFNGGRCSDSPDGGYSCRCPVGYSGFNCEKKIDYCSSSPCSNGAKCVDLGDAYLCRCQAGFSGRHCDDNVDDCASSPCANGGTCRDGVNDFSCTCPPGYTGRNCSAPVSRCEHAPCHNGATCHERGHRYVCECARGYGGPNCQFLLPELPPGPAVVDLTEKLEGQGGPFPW
Nature of the assay: rhDLL1/rhJAG1 binding ELISA.

Assay [7] concerns the target T6, recombinant mouse DLL4 extracellular domain, C-terminally His-tagged (R&D Systems) (mouse, UniProt Q9JI71 27-525).
T6 construct: range 1-525; also called rmDLL4; mDLL4; not shown: C-terminal His tag
Briefly: binding ELISA on coated rmDLL4. On the procedure: In order to determine cross-reactivity to mouse DII4 a binding ELISA is performed. […] Wells are blocked with a casein solution (1% in PBS). VHHs are applied as dilution series and binding is detected using a mouse anti-myc (Roche) and an anti-mouse-AP conjugate (Sigma, St Louis, Mo., USA) (FIG. 7).

Assay [8] concerns the target T7, human Ang2 (human, UniProt O15123 19-496, limits assumed).
T7 construct: also called hAng2; human Angiopoietin2
T7 sequence (looked up): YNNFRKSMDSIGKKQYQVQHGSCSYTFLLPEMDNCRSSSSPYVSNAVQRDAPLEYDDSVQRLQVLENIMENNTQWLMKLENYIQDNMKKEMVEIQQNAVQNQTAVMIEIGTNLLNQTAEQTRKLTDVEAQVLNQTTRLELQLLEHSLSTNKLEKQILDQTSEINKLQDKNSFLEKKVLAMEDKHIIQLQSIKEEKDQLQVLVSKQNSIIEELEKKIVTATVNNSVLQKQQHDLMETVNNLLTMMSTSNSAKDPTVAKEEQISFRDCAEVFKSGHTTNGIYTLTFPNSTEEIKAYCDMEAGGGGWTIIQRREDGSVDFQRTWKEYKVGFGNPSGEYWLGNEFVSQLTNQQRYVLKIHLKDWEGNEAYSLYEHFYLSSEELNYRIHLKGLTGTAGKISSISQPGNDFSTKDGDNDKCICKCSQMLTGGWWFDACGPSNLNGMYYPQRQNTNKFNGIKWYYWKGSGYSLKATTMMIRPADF
Briefly: competition ELISA hAng2/hTie2-Fc. On the procedure:
This assay is also performed after incubation of the VHH with 0.5 μM human serum albumin.

Assay [9] concerns the target T3, recombinant human DLL4 extracellular …. Briefly: periplasmic extract; Biacore off-rate. In general terms: Surface plasmon resonance follows binding to a sensor surface in real time, without labels.
The target is the same in assay [10]. Nature of the assay: periplasmic extract; hDLL4/hNotch1 AlphaScreen. On the procedure: To this mixture, the acceptor beads and the streptavidin donor beads are added and further incubated for 1 hour at room temperature. Fluorescence is measured by reading plates on the Envision Multilabel Plate reader (Perkin Elmer, Waltham, Mass., USA) using an excitation wavelength of 680 nm and an emission wavelength of 520 nm.
(In general: In Alpha technology, singlet oxygen from a donor bead excites a nearby acceptor bead.)

For assay [11] the target is unchanged. Briefly: periplasmic extract; hDLL4 ELISA.
Assay [12] deals with T8, cynomolgus DLL4, full length, overexpressed on cells (cynomolgus, UniProt Q9NR61 27-685 (human entry)).
T8 construct: also called CHO-cDLL4; cDLL4
T8 chain: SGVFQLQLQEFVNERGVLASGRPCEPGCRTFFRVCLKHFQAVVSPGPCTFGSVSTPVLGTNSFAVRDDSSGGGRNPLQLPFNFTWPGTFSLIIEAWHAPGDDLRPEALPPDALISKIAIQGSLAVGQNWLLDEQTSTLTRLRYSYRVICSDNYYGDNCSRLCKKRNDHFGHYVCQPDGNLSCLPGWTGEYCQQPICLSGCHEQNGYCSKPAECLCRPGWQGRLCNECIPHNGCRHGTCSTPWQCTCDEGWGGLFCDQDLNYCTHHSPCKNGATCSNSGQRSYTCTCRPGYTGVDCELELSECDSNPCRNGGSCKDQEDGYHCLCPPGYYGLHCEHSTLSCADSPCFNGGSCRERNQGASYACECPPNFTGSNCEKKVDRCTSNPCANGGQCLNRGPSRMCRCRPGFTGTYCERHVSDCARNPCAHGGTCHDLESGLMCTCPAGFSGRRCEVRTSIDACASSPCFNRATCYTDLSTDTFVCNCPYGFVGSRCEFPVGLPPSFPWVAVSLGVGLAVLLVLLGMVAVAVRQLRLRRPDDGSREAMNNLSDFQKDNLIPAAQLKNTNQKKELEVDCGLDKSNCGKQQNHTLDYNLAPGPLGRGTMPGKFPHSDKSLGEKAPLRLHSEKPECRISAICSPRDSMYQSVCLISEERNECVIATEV
Nature of the assay: FACS titration on HEK293-cDLL4 cells. Here is the method:
In order to determine the cynomologus cross-reactivity of the VHHs, a FACS binding experiment is performed. Cynomolgus DII4 expressing HEK293 cells (transient or stable transfection) are used for a titration binding experiment of the VHHs. After a 30 minutes incubation on ice, all samples are washed and detection is performed by applying anti-c-myc-Alexa647 (Santa Cruz Biotechnology, Santa Cruz, Calif., USA). Human and mouse DII4 overexpressing HEK293 cells are taken as reference. The mean MCF value is determined on the FACS Array and used for calculation of the EC₅₀ value (see FIG. 9).

T2 sequence (Q9JI71 27-686): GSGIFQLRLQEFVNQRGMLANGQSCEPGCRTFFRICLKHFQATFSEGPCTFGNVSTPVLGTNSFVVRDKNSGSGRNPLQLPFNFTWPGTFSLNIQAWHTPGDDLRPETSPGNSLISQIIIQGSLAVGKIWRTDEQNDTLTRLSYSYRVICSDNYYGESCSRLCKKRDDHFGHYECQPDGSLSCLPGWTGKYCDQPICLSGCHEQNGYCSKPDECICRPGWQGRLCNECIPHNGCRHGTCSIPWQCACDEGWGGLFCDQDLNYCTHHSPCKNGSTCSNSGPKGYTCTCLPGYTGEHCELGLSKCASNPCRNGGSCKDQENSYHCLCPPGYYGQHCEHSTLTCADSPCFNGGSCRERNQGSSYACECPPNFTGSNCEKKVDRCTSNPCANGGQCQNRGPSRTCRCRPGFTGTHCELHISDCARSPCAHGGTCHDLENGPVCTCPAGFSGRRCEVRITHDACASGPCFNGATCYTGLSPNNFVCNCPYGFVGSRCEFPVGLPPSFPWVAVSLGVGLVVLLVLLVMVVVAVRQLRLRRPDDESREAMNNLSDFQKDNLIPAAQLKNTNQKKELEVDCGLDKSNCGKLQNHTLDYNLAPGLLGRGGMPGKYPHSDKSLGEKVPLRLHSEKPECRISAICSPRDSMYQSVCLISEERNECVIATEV
T6 sequence (Q9JI71 27-525 limits assumed): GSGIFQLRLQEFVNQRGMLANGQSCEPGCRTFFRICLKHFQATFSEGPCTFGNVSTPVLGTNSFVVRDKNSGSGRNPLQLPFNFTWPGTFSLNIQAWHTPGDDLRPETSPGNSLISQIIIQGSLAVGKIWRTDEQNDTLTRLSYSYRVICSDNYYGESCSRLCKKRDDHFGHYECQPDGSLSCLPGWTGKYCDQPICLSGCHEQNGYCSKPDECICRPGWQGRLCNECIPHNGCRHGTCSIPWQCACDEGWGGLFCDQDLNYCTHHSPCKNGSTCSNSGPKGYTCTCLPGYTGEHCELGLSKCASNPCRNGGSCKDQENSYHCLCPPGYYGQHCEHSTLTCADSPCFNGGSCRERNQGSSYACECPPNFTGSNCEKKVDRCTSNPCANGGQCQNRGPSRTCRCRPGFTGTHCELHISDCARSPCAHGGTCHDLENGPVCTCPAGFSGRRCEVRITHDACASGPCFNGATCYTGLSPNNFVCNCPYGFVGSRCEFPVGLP

B1: DLLBII104G01 (VHH)
VHH: EVQLVESGGGLVQAGGSLRLSCAASGFTFDDYAIGWFRQAPGKEREGVSCISSSDGSTYYADSVKGRFTISSDNAKNTVYLQMNSLKPEDTAVYYCATAWCDSSWYRSFVGYWGQGTQVTVSS
notes: also called 104G1; DLLBII104G1; not shown: C-terminal c-myc and His6 tags
Consider B1, for which, in assay [1], the “IC50, DLL4/Notch1 reporter assay (luciferase; co-culture with HEK293-hDII4)” value (“IC50, DLL4/Notch1 reporter assay” below) amounted to 964 nM. For the same molecule, the “% inhibition” value was found to be 86% in assay [2] and 94% in assay [4]. Besides, the “concentration giving complete inhibition, HUVEC proliferation assay” value (from here on “concentration giving complete inhibition”) in [3] was found to be 10 µM.

B2: DLLBII115A05 (VHH)
VHH: EVQLVESGGGLVQPGGSLRLSCAASGFTFGSYDMSWVRRSPGKGPEWVSSINSGGGSTYYADFVKGRFTISRDNAKNTLYLQMNSLKPEDTAVYYCAADRYIRARQGDYWGAYEYDYWGQGTQVTVSS
notes: also called 115A5; DLLBII115A5; not shown: C-terminal c-myc and His6 tags
In the case of B2, in [1], the “IC50, DLL4/Notch1 reporter assay” value is 1740 nM. The “% inhibition” value in assay [2] came out at 84%; in [4], 74%. In addition, in assay [3], the “concentration giving complete inhibition” value amounted to 10 µM.

B3: DLLBII133G05 (VHH)
VHH: EVQLVESGGGLVQPGGSLRLSCAASGFTFGSYDMSWVRRSPGKGPEWVSAINSGGGSTYYTDYVKGRFTISRDNAKNTLYLQMNSLKPEDTAVYYCAADRYIWARQGEYWGAYAYDYWGQGTQVTVSS
notes: not shown: C-terminal c-myc and His6 tags
With B3, the binding result in assay [5] and in [6] was “no binding” throughout. In addition, in assay [7], the “EC50 (read off the curve)” value is about 500 pM.

B4: 00045 (VHH)
VHH: EVQLVESGGGLVQPGGSLRLSCAASGFALDYYAIGWFRQAPGKEREGVSCISSSDGITYYADSVKGRFTISRDNSKNTVYLQMNSLRPEDTAVYYCATDSGGYIDYDCMGLGYDYWGQGTLVTVSS
Consider B4, for which the “IC50 (read off the curve)” value in [8] was about 100 pM.

B5: DLLBII17C01 (VHH)
VHH: EVQLVESGGGLVQAGGSLRLSCAASGFTFDDYPIGWLRQAPGKEREGVSCISSSDDSTYYADSVKGRFTISSNNAKNTVYLQMNSLKPEDTAVYYCAVRLFSGGCAVVAGTSWADFGSSGQGTQVTVSS
notes: also called DLLBII17C1; not shown: C-terminal c-myc and His6 tags
Turning to B5, the koff in assay [9] is 0.00056 s⁻¹. Besides, the “% inhibition” value in assay [10] was 84%; in assay [11], 82%.

B6: DLLBII17G10 (VHH)
VHH: EVQLVESGGGLVQAGGSLRLSCAASGSTFSSYAMGWYRHQAPGKQRELVAAISSDGSTHYADSVKGRFTISRDNAKNTMYLQMNSLKPEDTAVYYCNTKTFGSNWYDDYWGQGTQVTVSS
notes: as for B3
Regarding B6, the koff in assay [9] is 0.0015 s⁻¹. Also, the “% inhibition” value was found to be 82% in assay [10] and 93% in assay [11].

B7: DLLBII101G08 (VHH)
VHH: EVQLVESGGGLVQAGGSLRLSCAASGRTFSSYAMAWFRQAPGKEREFVAAIRWSGGTAYYADSVQGRFTISRDNAKNTVYLQMNSLKPEDTAVYYCANRAADTRLGPYEYDYWGQGTQVTVSS
notes: also called 101G8; DLLBII101G8; not shown: C-terminal c-myc and His6 tags
For the molecule B7, the “IC50, DLL4/Notch1 reporter assay” value in assay [1] stood at 2760 nM. Also, the “% inhibition” value in assay [2] was determined as 92%; in assay [4], 91%. In addition, in [12], the concentration giving a half-maximal response (EC50 (read off the curve)) is about 8 nM. In assay [3], the “concentration giving complete inhibition” value turned out to be 10 µM.

B8: DLLBII55D12 (VHH)
VHH: EVQLVESGGGLVQPGGSLRLSCAASGFTFDDYAIGWFRQAPGKEPEGISCISSSGGITYYADSVKGRFTISRDNAKNTVYLQMNSLKPEDTAVYYCATPGIAACRGIHYTGQGTQVTVSS
notes: as for B3
For B8, the binding result in assay [12] is “binds”.

B9: DLLBII19D10 (VHH)
VHH: EVQLVESGGGLVQAGDSLRLSCAASGRTVGSYDMSWVRQGPGKEREWVSSINSGVGKTYYADSVKGRFTIFRDNAKNMVYLQMNNLKPEDTAVYYCATEMDGSRYVEGQGTQVTVSS
notes: as for B3
With B9, in assay [9], the koff came out at 0.0013 s⁻¹. For the same molecule, the “% inhibition” value was 85% in [10] and 98% in [11].

B10: DLLBII96C03 (VHH)
VHH: EVQLVESGGGLVQPGGSLRLSCAASGFTFGNYDMSWVRQAPGKGPEWVSAINSGGGDTYYADSVKGRFTISRDNAKNTLYLQMNSLKPEDTAVYYCATPRGWGPTGPHEYGYWGQGTQVTVSS
notes: also called 96CO3; 96C3; not shown: C-terminal c-myc and His6 tags
As to B10, the “IC50, DLL4/Notch1 reporter assay” value in assay [1] came to 5160 nM. For the same molecule, the results for the “% inhibition” value in assay [2] and in assay [4] were 83% and 75%, respectively.

B11: DLLBII17F10 (VHH)
VHH: EVQLVESGGGLVQAGGSLRLSCASSGRTLLNYAMGWFRQAPGKEREFVSGINWSGGSTYYADSVKGRFTISRDNAENTVYLHMNSLKPEDTAVYYCAAAHDNYWFTDDSLGRGLKYWGQGTQVTVSS
notes: as for B3
In the case of B11, the “% inhibition” value in assay [10] is 88%; in assay [11], 98%. Further, the binding result in [7] is listed as “no binding (tested: 2.5e-7 M)”.
